Where “and” joins values, the source holds several entries; their conditions need not be identical. Identical values can stand only once. Blank lines part the entries; values can stand above or below the substance they belong to.
What was measured:
[1] = target: tissue factor extracellular domains (human) (UniProt P13726); test: SPR, TF immobilised, purified Fab as analyte, 1:1 model
[2] = target: D3H44 light chain F116A_L135A; test: LCCA (SPR), competitor L1 L135W_N137A
[3] = target: D3H44 light chain F116A_L135A; test: LCCA (SPR), competitor L1 L135W
[4] = target: D3H44 light chain F116A_L135V; test: LCCA (SPR), competitor L1 L135W
D3H44 light chain L135W [5] = test: LCCA (SPR), competitor L2 F116A_L135V
D3H44 light chain L135W, sequence (light, as listed by the source): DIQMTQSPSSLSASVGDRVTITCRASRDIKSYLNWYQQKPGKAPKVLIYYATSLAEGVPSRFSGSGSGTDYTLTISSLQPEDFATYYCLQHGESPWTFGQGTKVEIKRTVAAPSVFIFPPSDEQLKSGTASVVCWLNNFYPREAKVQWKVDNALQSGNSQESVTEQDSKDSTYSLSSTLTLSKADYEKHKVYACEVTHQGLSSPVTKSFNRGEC

[6] = target: D3H44 light chain L135W_N137A; test: LCCA (SPR), competitor L2 F116A_L135A
D3H44 light chain L135W [7] = test: LCCA (SPR), competitor L2 F116A_L135A
[8] = target: D3H44 light chain, wild type; test: LCCA (SPR), competitor L2 F118W_V133S
D3H44 light chain, wild type, sequence (light, as listed by the source): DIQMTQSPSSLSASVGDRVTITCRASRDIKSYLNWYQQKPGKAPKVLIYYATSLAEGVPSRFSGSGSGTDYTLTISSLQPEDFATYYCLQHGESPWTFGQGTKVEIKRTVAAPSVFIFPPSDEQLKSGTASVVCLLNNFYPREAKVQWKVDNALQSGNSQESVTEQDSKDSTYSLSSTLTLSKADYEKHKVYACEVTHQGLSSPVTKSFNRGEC

[9] = target: D3H44 light chain F118W_V133S; test: LCCA (SPR), competitor L1 WT
D3H44 light chain F116A [10] = test: LCCA (SPR), competitor L2 F118W_V133S
[11] = target: D3H44 light chain F118W_V133S; test: LCCA (SPR), competitor L1 F116A
[12] = target: D3H44 light chain, wild type; test: LCCA (SPR), competitor L2 F116A
D3H44 light chain F116A [13] = test: LCCA (SPR), competitor L1 WT

tissue factor extracellular domains (human), sequence (P13726 33-251): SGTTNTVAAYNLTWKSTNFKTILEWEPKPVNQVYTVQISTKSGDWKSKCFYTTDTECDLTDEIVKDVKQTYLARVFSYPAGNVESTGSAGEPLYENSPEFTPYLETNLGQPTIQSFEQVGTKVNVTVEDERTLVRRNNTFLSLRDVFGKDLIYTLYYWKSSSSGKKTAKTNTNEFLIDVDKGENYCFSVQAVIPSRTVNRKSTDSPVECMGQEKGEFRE

Substance: D3H44 Fab Design 11 H1-L1 (H1 S188L_V190Y, L1 V133S)
Kd [1]: 0.043 nM

Substance: D3H44 Fab Design 11 H2-L2 (H2 F174V_P175S_S188G, L2 S176L)
Kd [1]: 0.04 nM

Substance: D3H44 Fab Design 15 H1-L1 (H1 D146G_Q179R, L1 Q124E_Q160E_T178D)
Kd [1]: 0.082 nM

Substance: D3H44 Fab Design 15 H2-L2 (H2 K145T_Q179D_S188L, L2 Q160K_T178R)
Kd [1]: 0.071 nM

Substance: D3H44 Fab Design 30 H1-L1 (H1 D148G_Q175K, L1 Q124E_Q160E_T180E)
Kd [1]: 0.024 nM

Substance: D3H44 Fab Design 30 H2-L2 (H2 L145E_K147T, L2 Q160K_T178R)
Kd [1]: 0.06 nM

Substance: D3H44 heavy chain (Fab format) A139G_V190A
H1 L2 of H1 L1:H1 L2 (screen) [2]: 5.16 | H1 L2 of H1 L1:H1 L2 (screen) [3]: 10.1 | H1 L2 of H1 L1:H1 L2 (verification) [3]: 10.6 | H1 L2 of H1 L1:H1 L2 (screen) [4]: 13.8 | H1 L2 of H1 L1:H1 L2 (verification) [4]: 48.3 | H1 L1 of H1 L1:H1 L2 (screen) (D3H44 light chain L135W [5]): 68.4 | H1 L1 of H1 L1:H1 L2 (verification) (D3H44 light chain L135W [5]): 49 | H1 L1 of H1 L1:H1 L2 (screen) [6]: 70.5 | H1 L1 of H1 L1:H1 L2 (screen) (D3H44 light chain L135W [7]): 65 | H1 L1 of H1 L1:H1 L2 (verification) (D3H44 light chain L135W [7]): 69.5

Substance: D3H44 heavy chain (Fab format) A139I
H2 L1 of H2 L2:H2 L1 (screen) [8]: 28.9 | H2 L2 of H2 L2:H2 L1 (screen) [9]: 51.9

Substance: D3H44 heavy chain (Fab format) A139W_V190A
H2 L1 of H2 L2:H2 L1 (screen) [12]: 17.8 | H2 L1 of H2 L2:H2 L1 (verification) [12]: 19.7 | H2 L2 of H2 L2:H2 L1 (screen) (D3H44 light chain F116A [13]): 74.5 | H2 L2 of H2 L2:H2 L1 (verification) (D3H44 light chain F116A [13]): 51.4

Results, then the substance that gave them:

Kd [1]: 0.087 nM
Substance: D3H44 Fab Design 13 H1-L1 (H1 L143A_D144G_Q179R, L1 Q124E_V133W_Q160E_T180E)

Kd [1]: 0.086 nM
Substance: D3H44 Fab Design 13 H2-L2 (H2 K145T_Q179D_S188F, L2 V133A_Q160K_T178R)

Kd [1]: 0.025 nM
Substance: D3H44 Fab Design 31 H1-L1 (H1 Q39D_A141G_V185A, L1 Q38R_L135W)

H1 L1 of H1 L1:H1 L2 (screen) (D3H44 light chain F116A [10]): 64.7 | H1 L1 of H1 L1:H1 L2 (verification) (D3H44 light chain F116A [10]): 59.8 | H1 L1 of H1 L1:H1 L2 (screen) [8]: 67.1 | H1 L1 of H1 L1:H1 L2 (verification) [8]: 77 | H1 L2 of H1 L1:H1 L2 (screen) [11]: 25.1 | H1 L2 of H1 L1:H1 L2 (verification) [11]: 0.759 | H1 L2 of H1 L1:H1 L2 (screen) [9]: 28 | H1 L2 of H1 L1:H1 L2 (verification) [9]: 8.2
Substance: D3H44 heavy chain (Fab format) A139I_V190S

H2 L1 of H2 L2:H2 L1 (screen) (D3H44 light chain F116A [10]): 35.7 | H2 L1 of H2 L2:H2 L1 (verification) (D3H44 light chain F116A [10]): 56.1 and 24.5 | H2 L2 of H2 L2:H2 L1 (screen) [11]: 63.9 | H2 L2 of H2 L2:H2 L1 (verification) [11]: 24.5 and 56.1
Substance: D3H44 heavy chain (Fab format) A139V

H1 L1 of H1 L1:H1 L2 (screen) (D3H44 light chain F116A [10]): 68.7 | H1 L1 of H1 L1:H1 L2 (verification) (D3H44 light chain F116A [10]): 42.1 | H1 L1 of H1 L1:H1 L2 (screen) [8]: 58.8 | H1 L1 of H1 L1:H1 L2 (verification) [8]: 52.2 | H1 L2 of H1 L1:H1 L2 (screen) [11]: 35.1 | H1 L2 of H1 L1:H1 L2 (verification) [11]: 10.1 | H1 L2 of H1 L1:H1 L2 (screen) [9]: 35.2 | H1 L2 of H1 L1:H1 L2 (verification) [9]: 8.66
Substance: D3H44 heavy chain (Fab format) A139V_V190S
